Measurements from US20250361312A1.
Blank lines part the entries; values can stand above or below the binder they belong to.

Target: mouse OX40 receptor, cell-expressed (DO11.10-mOX40) (mouse) (UniProt P47741)
Experiment: cell-based or functional assay

Sequence of mouse OX40 receptor, cell-expressed (DO11.10-mOX40) (mouse) (P47741 20-272): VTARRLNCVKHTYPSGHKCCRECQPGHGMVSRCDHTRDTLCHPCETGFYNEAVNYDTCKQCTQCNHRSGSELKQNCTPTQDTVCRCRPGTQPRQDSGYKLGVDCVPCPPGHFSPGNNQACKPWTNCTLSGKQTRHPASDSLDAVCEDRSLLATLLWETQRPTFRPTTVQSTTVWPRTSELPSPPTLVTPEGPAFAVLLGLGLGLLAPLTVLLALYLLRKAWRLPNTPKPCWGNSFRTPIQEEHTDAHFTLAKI

EC50 of IL-2 release, HPAC cells present, + a-hFc: 0.289 nM
Max response, HPAC cells present, + a-hFc: 18800 mIL-2 pg/ml
Max response, crosslinked by EphA2 on HPAC cells, no crosslinking agent: 11000 mIL-2 pg/ml
B1: FS20m-232-91AA/E2A (bispecific antibody, part only; not given: E2A Fab and upper Fc, human IgG1, part only)
heavy, part: GQPREPQVYTLPPSRDELFDPMYYYNQVSLTCLVKGFYPSDIAVEWESNGEPLWDYKTTPPVLDSDGSFFLYSKLTVWRDRWEDGNVFSCSVMHEALHNHYTQKSLSLSPGK

EC50 of IL-2 release, Xlink (VEGF): 0.144 nM
EC50 of IL-2 release, no added crosslinker: 29.9 nM
Max response, Xlink (VEGF): 15100 mIL-2 pg/ml
Max response, no added crosslinker: 16700 mIL-2 pg/ml
B2: FS20m-232-91AA/R84 (bispecific antibody, part only; not given: R84 Fab and upper Fc, human IgG1, part only)
heavy, part: B1 heavy, part

EC50 of IL-2 release, no added crosslinker (LAG3 co-expressed on T cells): 0.175 nM
Max response, no added crosslinker (LAG3 co-expressed on T cells): 9670 mIL-2 pg/ml
B3: FS20m-232-91AA/C9B7W (bispecific antibody, part only; not given: C9B7W Fab and upper Fc, human IgG1, part only)
heavy, part: B1 heavy, part

EC50 of IL-2 release, HPAC cells present, + a-hFc: 0.811 nM
EC50 of IL-2 release, Xlink (anti-hFc): 15.6 nM
Max response, HPAC cells present, + a-hFc: 17900 mIL-2 pg/ml
Max response, Xlink (anti-hFc): 16200 mIL-2 pg/ml
B4: G1/OX86 (antibody, from another filing, human IgG1, V domains shown)
VH: QVQLKESGPGLVQPSQTLSLTCTVSGFSLTGYNLHWVRQPPGKGLEWMGRMRYDGDIYYNSVLKSRLSISRDTSKNQVFLKMNSLQTDDTAIYYCTRDGRGDSFDYWGQGVMVTVSS
VL: DIVMTQGALPNPVPSGESASITCRSSQSLVYKDGQTYLNWFLQRPGQSPQLLTYWMSTRASGVSDRFSGSGSGTYFTLKISRVRAEDAGVYYCQQVREYPFTFGSGTKLEIKR
